Assay results from US12365732 (23ANDME, dated 2025).
Positions count from the first letter of the chain named. In names and notes the source's numbering stands.

T1: hu-CD96 isoform 2 on CHO cells (human, UniProt P40200 22-585)
T1 construct: also called CHO-CD96 (isoform 2); CD96-CHOs
T1 sequence: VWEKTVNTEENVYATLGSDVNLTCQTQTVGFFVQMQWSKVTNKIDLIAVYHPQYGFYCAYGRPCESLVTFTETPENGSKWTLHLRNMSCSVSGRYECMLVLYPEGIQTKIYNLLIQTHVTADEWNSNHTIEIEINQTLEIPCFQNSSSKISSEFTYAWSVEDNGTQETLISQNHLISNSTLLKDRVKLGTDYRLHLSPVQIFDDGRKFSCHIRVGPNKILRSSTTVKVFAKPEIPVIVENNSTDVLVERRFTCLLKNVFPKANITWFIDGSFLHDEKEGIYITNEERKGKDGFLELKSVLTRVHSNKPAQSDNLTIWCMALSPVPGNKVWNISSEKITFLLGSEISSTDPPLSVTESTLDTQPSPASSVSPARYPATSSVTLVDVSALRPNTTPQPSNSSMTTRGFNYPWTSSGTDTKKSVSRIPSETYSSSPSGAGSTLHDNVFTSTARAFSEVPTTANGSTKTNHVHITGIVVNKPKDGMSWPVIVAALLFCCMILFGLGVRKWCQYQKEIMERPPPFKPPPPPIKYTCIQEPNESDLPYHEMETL

T2: cy-CD96 (soluble, extracellular domain) (cynomolgus monkey, UniProt P40200 22-516 (human entry), biotinylated in Octet and blocking ELISA)
T2 construct: the assays name only cy-CD96; also called biotinylated cy-CD96
T2 chain: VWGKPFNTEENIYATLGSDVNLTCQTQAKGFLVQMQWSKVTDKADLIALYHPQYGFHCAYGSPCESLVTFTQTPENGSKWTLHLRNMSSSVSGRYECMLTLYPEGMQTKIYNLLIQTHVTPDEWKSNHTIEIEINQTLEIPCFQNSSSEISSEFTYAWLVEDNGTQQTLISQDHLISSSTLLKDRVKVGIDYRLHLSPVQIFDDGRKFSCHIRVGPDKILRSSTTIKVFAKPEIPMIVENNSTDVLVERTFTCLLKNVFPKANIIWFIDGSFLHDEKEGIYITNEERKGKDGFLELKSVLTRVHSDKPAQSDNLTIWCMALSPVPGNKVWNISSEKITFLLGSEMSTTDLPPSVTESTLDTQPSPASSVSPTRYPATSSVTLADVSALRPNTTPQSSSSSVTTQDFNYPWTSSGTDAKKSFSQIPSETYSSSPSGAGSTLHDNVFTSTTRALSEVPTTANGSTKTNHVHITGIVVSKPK

B1: 9H4, purified hybridoma antibody (antibody, V domains shown)
VH: EVQLLETGGGLVKSGGSLKLSCAASGFTFSDYYMYWVRQTPEKRLEWVAAISDDGTYTYYPDSVKGRFTISRDNANNYLYLQMSSLKSEDTAIYYCAKAGSYDYFDVWGAGTTVTVSS
VL: DIVLTQSPASLAVSLGQRAIISCKASQSVTFADTGLMHWYQQKPGQQPKLLIYRASNLEVGVPTRFSGSGSGTDFTLNIHPVEEEDVATYYCQQSREYPWTFGGGTKLEIK
notes: murine hybridoma IgG
B2: mAb1.v7 IgG (humanized 12F8) (antibody, V domains shown)
VH: EVQLVQSGAEVKKPGASVKVSCKASGFTFTNNWMHWVRQAPGQGLEWIGMIHPNSGITNINEKFKNRVTMTTDTSTSTAYMELRSLRSEDTAVYYCRSDGTYEGYFDYWGQGTLVTVSS
VL: DIQLTQSPSSLSASVGDRVTITCKASQNVGTAIVWYQQKPGKAPKVLIYSASTRYTGVPSRFSGSGSGTDFTLTISSLQPEDFATYYCQQYSSSPLTFGQGTKVEIKG
notes: human IgG1 N297G
B3: 7E5, purified hybridoma antibody (antibody, V domains shown)
VH: QVQLKESGPGLVAPSQSLSIICTVSGFSLTNYGIHWIRQPPGKGLEWLGIIWAGGSTNYNSALMSRLTISKDNSKSQVFLKMNSLQTNDTAIYYCARVSMMGFAYWGQGTLVTVSA
VL: QAVVTQESALTTSPGETVTLTCRSSTGAVTTSNYANWVQEKPDHLFTGLIGGTNNRAPGVPARFSGSLIGDKAALTITGAQTEDEAIYFCSLWYGSHWVFGGGTKLTVL
notes: murine hybridoma IgG
B4: 10G1 (clone 10G1.3G8), purified hybridoma antibody (antibody, V domains shown)
VH: QIQLVQSGPELKKPGETVKISCKASGYPFTTYGMSWVKQAPGKGLKWMGWINTDSGVPTYADDFKGRFAFSLETSANTAYLQINSLKNEDAATYFCARNIYYGWGNFDYWGQGTILTVSS
VL: DILMTQSPTTLSVTPGETVSLSCRASQDIYRNLHWYQQKSQGTPRLLIKHASDSISGIPSRFTGSGSGTDFTLSINSVKPEDEGIYYCLQGYSMPYTFGGGTKLEIK
notes: murine hybridoma IgG
B5: h10G1 IgG (humanized 10G1) (antibody, V domains shown)
VH: EIQLVQSGSELKKPGASVKVSCKASGYPFTTYGMSWVRQAPGQGLEWMGWINTDSGVPTYADDFKGRFVFSLDTSVSTAYLQISSLKAEDTAVYFCARNIYYGWGNFDYWGQGTLVTVSS
VL: EIVMTQSPDFQSVTPKEKVTITCRASQDIYRNLHWYQQKPDQTPKLLIKHASDSISGIPSRFSGSGSGTDFTLTINSLEAEDAAAYYCLQGYSMPYTFGGGTKVEIKG
notes: human IgG1 N297G
B6: mAb1.v7.NGS11 IgG (antibody, V domains shown)
VH: B2 VH with W33F, M50F, P53A, T101V
VL: B2 VL
notes: human IgG1 N297G
B7: mAb1.v7.NGS9 IgG (antibody, V domains shown)
VH: B2 VH with W33F, P53A, T101V
VL: B2 VL
notes: human IgG1 N297G
B8: mAb1.v7.NGS10 IgG (antibody, V domains shown)
VH: B2 VH with W33F, M50F, P53A, T101I
VL: B2 VL
notes: human IgG1 N297G
B9: mAb1.v7.2 Fab (Fab, V domains shown)
VH: B2 VH with M34R, P53F, T101V
VL: DIQLTQSPSSLSASVGDRVTITCKASQNVGTAIVWYQQKPGKAPKVLIYSASTRYTGVPSRFSGSGSGTDFTLTISSLQPEDFATYYCQQYSSSPLTFGQGTKVEIK
notes: also called M34R/P52aF/T97V
B10: mAb1.v7.16 Fab (Fab, V domains shown)
VH: B2 VH with M34R, T101V
VL: B9 VL
notes: also called M34R/T97V
B11: mAb1.v7.48 Fab (Fab, V domains shown)
VH: B2 VH with N32R, P53H, T101V
VL: B9 VL
notes: also called N32R/P52aH/T97V
B12: mAb1.v7.9 Fab (Fab, V domains shown)
VH: B2 VH with M34R, P53M, T101V
VL: B9 VL
notes: also called M34R/P52aM/T97V
B13: mAb1.v7.70 Fab (Fab, V domains shown)
VH: B2 VH with N32R, P53A, T101V
VL: B9 VL
notes: also called N32R/P52aA/T97V

Each binder was assayed against T1, hu-CD96 isoform 2 on CHO cells (assay: FACS, Ab 0.016 nM).
Method: Isoform 1 of hu-CD96 (Origene, catalog #RC213845) was transiently expressed in HEK293T cells following standard lipofectamine or Fugene transfection protocol. […] Cells were washed, and binding was detected by incubation with anti-mouse IgG-FITC (Biolegend, catalog #406001) for 20 minutes at 4° C. Cell binding was analyzed by flow cytometry with a CytoFLEX (Beckman Coulter). Binding curves were calculated as a percentage of cells positive for bound antibody.
Isoform 2 of hu-CD96 (DNA construct: Origene, catalog #RC221005) was expressed on a single-cell-clone-derived CHO stable cell line. Binding of the anti-CD96 antibodies to the CHO cells were determined as described above with isoform 1 of hu-CD96.
For B1, the “% positive” value was 0.3%. With B2 the “% positive” value was 0.4%. In the case of B3, the “% positive” value is reported as 3.6%. With B4 the “% positive” value was 0.4%.

What follows are binders tested against T1, hu-CD96 isoform 2 on CHO cells (assay: FACS, CD155-Fc-FLAG 10 nM, Ab 0.16 nM).
Method: CHO cells stably expressing isoform 2 of hu-CD96 (Origene, catalog #RC221005) were incubated with anti-CD96 antibodies for 20 minutes at 4° C. The cells were washed, and then incubated with 10 nM human CD155-Fc-FLAG for 30 minutes at 4° C. Cells were washed, and then human CD155-Fc-FLAG binding was detected by incubation with anti-FLAG-APC (Columbia Biosciences, catalog #D3-1718-1MG) for 20 minutes at 4° C. Cell binding was analyzed by flow cytometry with a CytoFLEX (Beckman Coulter). CD155 binding is represented as median fluorescence intensity (MedFI).
As shown in Table 20 (below), the anti-CD96 antibodies, mAb1.v7.NGS8, mAb1.v7.NGS9, mAb1.v7.NGS10, mAb1.v7.NGS11, and h10G1 inhibited soluble hu-CD155 binding to CD96-expressing CHO cells dose-dependently and potently. The antibody NK92.39 (Fuchs et al., 2004; Biolegend catalog #338405) inhibited receptor binding similarly.
B5 was tested, and the “CD155-Fc binding (MedFI)” value was 21200 MedFI. With B6 the “CD155-Fc binding (MedFI)” value was 51900 MedFI. B7 was tested, and the “CD155-Fc binding (MedFI)” value was 54600 MedFI. In the case of B8, the “CD155-Fc binding (MedFI)” value is reported as 54100 MedFI.

Biological target: T2, cy-CD96 (soluble, extracellular domain)
Test: phage competition ELISA, soluble CD96 vs coated hu-CD96
Method: 192 colonies from most stringent selections (biotinylated 0.1 nM of hu-CD96 or cy-CD96 with 1000× non-biotinylated human or cy-CD96) were grown in 400 µL 2YT with 4 µL helper phage M13KO7 overnight at 37° C. with shaking. After spinning down the pellet, the phage supernatant was diluted 1:1 with 2 nM hu-CD96, 20 nM cy-CD96 and ELISA buffer (0.5% BSA and 0.05% TWEEN®20 in PBS) in total […] and incubated for two hours at room temperature with agitation. The […] of mixture was transferred to hu-CD96 coated plate for 15 min to capture unbound phage. The plate was washed with wash buffer (0.05% TWEEN®20 in PBS), and HRP-conjugated anti-M13 antibody (Sino biological, Cat #11973-MM05-H-50) was added in ELISA buffer for 30 min. […] Enzymatic color development was stopped using TMB stop solution (VWR, Cat #95059-200). Plates were analyzed with a SpectraMax i3X plate reader (Molecular Devices). The % inhibition was calculated by the $OD450$ of wells with hu-CD96/cy-CD96 competitor divided by $OD450$ of wells with buffer alone. The lower % inhibition indicated higher phage $IC50$ against hu-CD96 or cy-CD96.
Selected top inhibition % phage variants from single spot competition were purified from culture supernatants. The optimal phage concentration was incubated with serially-diluted hu-CD96 or cy-CD96 in ELISA buffer in NUNC F plate for two hours. The […] of the mixture was transferred to hu-CD96 coated wells for 15 min to capture unbound phage. The plate was washed with wash buffer (0.05% TWEEN®20 in PBS), and HRP-conjugated anti-M13 antibody (Sino biological, Cat #11973-MM05-H-50) was added in ELISA buffer for 30 min. The plates were washed and developed as described above. The absorbance at 450 nm was plotted as a function of antigen concentration in solution to determine phage $IC50$.
In the case of B9, the IC50 is reported as 1.8 nM. B10 was tested, and the IC50 was 1.6 nM. Binder B11 has an IC50 of 0.3 nM. B12 gave an IC50 of 0.37 nM. For B13, the IC50 was 0.4 nM.
